# Literature values, collected in patent publication US20230127008A1, “STAT3-TARGETED BASE EDITOR THERAPEUTICS FOR THE TREATMENT OF MELANOMA AND OTHER CANCERS” (The Broad Institute, Inc., priority 2020, published 2023).
# B1: 175-307 deletion: SpCas9 mutation relative to canonical SpCas9, SEQ ID NO: 74 (protein)
# chain: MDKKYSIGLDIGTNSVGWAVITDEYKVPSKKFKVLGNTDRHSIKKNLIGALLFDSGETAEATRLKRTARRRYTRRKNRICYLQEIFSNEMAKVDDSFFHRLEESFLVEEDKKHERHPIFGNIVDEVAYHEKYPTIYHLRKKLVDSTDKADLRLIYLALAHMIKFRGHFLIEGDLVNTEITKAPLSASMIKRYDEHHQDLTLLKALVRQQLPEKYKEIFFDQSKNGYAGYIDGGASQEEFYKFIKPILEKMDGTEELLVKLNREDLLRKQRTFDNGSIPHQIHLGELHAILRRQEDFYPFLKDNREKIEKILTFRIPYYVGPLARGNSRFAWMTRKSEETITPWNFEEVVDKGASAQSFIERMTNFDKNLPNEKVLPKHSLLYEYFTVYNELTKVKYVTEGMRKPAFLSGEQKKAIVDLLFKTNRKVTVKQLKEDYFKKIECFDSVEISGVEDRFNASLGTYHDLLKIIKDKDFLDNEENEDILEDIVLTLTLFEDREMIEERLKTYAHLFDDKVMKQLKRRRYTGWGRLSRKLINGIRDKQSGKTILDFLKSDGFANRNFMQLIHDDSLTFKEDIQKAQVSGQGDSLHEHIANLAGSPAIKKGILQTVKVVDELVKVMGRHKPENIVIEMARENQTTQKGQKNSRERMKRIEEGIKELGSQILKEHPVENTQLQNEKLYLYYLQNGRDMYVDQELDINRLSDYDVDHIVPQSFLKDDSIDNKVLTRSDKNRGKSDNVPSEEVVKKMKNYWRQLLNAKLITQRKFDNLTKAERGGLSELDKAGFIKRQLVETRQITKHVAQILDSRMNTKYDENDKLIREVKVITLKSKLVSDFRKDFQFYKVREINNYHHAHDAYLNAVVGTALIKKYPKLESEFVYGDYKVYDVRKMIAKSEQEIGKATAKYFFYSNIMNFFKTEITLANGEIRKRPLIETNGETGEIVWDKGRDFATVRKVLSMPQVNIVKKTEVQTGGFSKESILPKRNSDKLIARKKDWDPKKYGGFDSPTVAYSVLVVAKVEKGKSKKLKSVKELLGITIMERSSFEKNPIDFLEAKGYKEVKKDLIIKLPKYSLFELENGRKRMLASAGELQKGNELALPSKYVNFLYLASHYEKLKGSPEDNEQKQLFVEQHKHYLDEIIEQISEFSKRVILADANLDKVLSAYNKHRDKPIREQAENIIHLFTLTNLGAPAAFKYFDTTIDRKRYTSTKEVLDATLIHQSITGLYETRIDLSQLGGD
# modifications: Streptococcus pyogenes
# Test system: DNA
# Conditions: SpCas9 mutation relative to SEQ ID NO: 74; UniProtKB-Q99ZW2 entry
molecule,measurement,value
B1,decreased DNA cleavage,About 50% decreased DNA cleavage
